Test results reported in paper PMC10604209, “Thermal Characterization and Interaction of the Subunits from the Multimeric Bacteriophage Endolysin PlyC” (Biology, 2023).

B1: PlyCA, the catalytic subunit of the endolysin PlyC (enzyme, UniProt Q7Y3F1 1-465, looked up)
chain: MSKKYTQQQYEKYLAQPANNTFGLSPQQVADWFMGQAGARPVINSYGVNASNLVSTYIPKMQEYGVSYTLFLMYTVFEGGGAGNWINHYMYDTGSNGLECLEHDLQYIHGVWETYFPPALSAPECYPATEDNAGALDRFYQSLPGRTWGDVMIPSTMAGNAWVWAYNYCVNNQGAAPLVYFGNPYDSQIDSLLAMGADPFTGGSITGDGKNPSVGTGNATVSASSEANREKLKKALTDLFNNNLEHLSGEFYGNQVLNAMKYGTILKCDLTDDGLNAILQLIADVNLQTNPNPDKPTVQSPGQNDLGSGSDRVAANLANAQAQVGKYIGDGQCYAWVGWWSARVCGYSISYSTGDPMLPLIGDGMNAHSIHLGWDWSIANTGIVNYPVGTVGRKEDLRVGAIWCATAFSGAPFYTGQYGHTGIIESWSDTTVTVLEQNILGSPVIRSTYDLNTFLSTLTGLITFK
B2: PlyCB, the cell wall binding subunit of the endolysin PlyC (PlyCB CBD, an octamer) (natural protein)
chain: MSKINVNVENVSGVQGFLFHTDGKESYGYRAFINGVEIGIKDIETVQGFQQIIPSINISKSDVEAIRKAMKK
notes: PlyCB, 8 kDa subunit of the streptococcal bacteriophage endolysin PlyC; Above about 74 °C in PBS the octamer is said to dissociate reversibly into a monomeric intermediate state; also called PlyCB octamer; PlyCB subunit; source: also as a subunit of the purified recombinant PlyC holoenzyme

How the values were obtained:
[1] = target: B2; test: cell-based or functional assay
[2] = target: the molecule itself; test: cross-linking; PlyCB CBD 1 mg/mL in PBS heated 10 min at temperatures up to 74.4 °C, amine cross-linking with 1 mM BS3 for 10 min, quenched with Tris, cooled on ice, SDS-PAGE
[3] = target: B1; test: SEC; 500 uL ice-cold 19.5 uM PlyCA added rapidly to 500 uL 15.6 uM PlyCB CBD in PBS heated to 75 °C, cooled on ice 5 min, centrifuged, HiPrep 16/60 Sephacryl S-200 HR in PBS; the peak corresponding to native PlyC analysed by SDS-PAGE; conditions: both partners purified

Binder	bacteriolytic activity toward S. pyogenes (turbidity reduction assay) of ice-cold PlyCA mixed about 1:1 with PlyCB CBD heated to 75 °C and then rapidly cooled, relative to native PlyC [1]	binding result [2]	binding result [3]
B1	35 % of the relative bacteriolytic activity of native PlyC	–	–
B2	–	binds	binds
